These are literature values, as cited in patent US9889085B1, “Therapeutic methods for the treatment of diabetes and related conditions for patients with high baseline HbA1c” (Intarcia Therapeutics, Inc., priority 2014, dated 2018).

The conditions of this data set: in vivo.

With “PYY: 36 amino acid residue peptide amide”, the half-life entry was “approximately 8 minutes”.
On to EGTFTSDVSSYLEGQAAKEFIAWLVKGR [GLP-1], for which the half-life result is recorded as “approximately 2 minutes”.
